Experimental data published in patent publication US20040253222A1.

Target: complement receptor type 3 (CR3), heterodimer of CD11b and CD18 (human) (UniProt P11215)
Assay: cell-based or functional assay

Row | Substance | invasion inhibition of endo- and ectocervical cells (gentamicin-resistance assay) [%] | invasion inhibition, ectocervical cells (gentamicin-resistance assay) [%] | invasion inhibition, endocervical cells (gentamicin-resistance assay) [%]
1 | Bear1 anti-CD11b antibody (Immunotech) | > 93 |  | 
2 | H5A4 anti-CD11b monoclonal antibody (Developmental Studies Hybridoma Bank) | > 93 | 100 | 99.9
3 | IB4 anti-CD18 antibody | > 93 |  | 
